Results on 11 molecules are retold here after publication PMC4456160 (Nature structural & molecular biology, 2015).

Numbering of substitutions follows the chain as printed. Names may count otherwise. Like-named read-outs stand apart in the source and are kept apart here.

B1: mouse NEO1 FN5-FN6 with juxtamembrane stretch (NEO1FN56M) (domain or fragment)
chain: TPMMPPVGVQASILSHDTIRITWADNSLPKHQKITDSRYYTVRWKTNIPANTKYKNANATTLSYLVTGLKPNTLYEFSVMVTKGRRSSTWSMTAHGATFELVPTSPPKDVTVVSKEGKPRTIIVNWQPPSEANGKITGYIIYYSTDVNAEIHDWVIEPVVGNRLTHQIQELTLDTPYYFKIQARNSKGMGPMSEAVQFRTPKADSSDKMPNDQALGSAGKGSRLPDLGSDYKPPMSGSNSPHGSPTSPLDSN
B2: N-terminal domain of human RGMC (RGMCND) (domain or fragment)
chain: QCKILRCNAEYVSSTLSLRGGGSSGALRGGGGGGRGGGVGSGGLCRALRSYALCTRRTARTCRGDLAFHSAVHGIEDLMIQHNCSRQGPTAPPPPRGPALPGAGSGLPAPDP
B3: RGMCND-L101P (domain or fragment)
chain: B2 chain with L66P
B4: RGMCND-G99R (domain or fragment)
chain: B2 chain with G64R
B5: mouse NEO1 fifth and sixth fibronectin type III domains (NEO1FN56) (domain or fragment)
chain: TPMMPPVGVQASILSHDTIRITWADNSLPKHQKITDSRYYTVRWKTNIPANTKYKNANATTLSYLVTGLKPNTLYEFSVMVTKGRRSSTWSMTAHGATFELVPTSPPKDVTVVSKEGKPRTIIVNWQPPSEANGKITGYIIYYSTDVNAEIHDWVIEPVVGNRLTHQIQELTLDTPYYFKIQARNSKGMGPMSEAVQFRTP
B6: N-terminal domain of human RGMA (RGMAND) (domain or fragment)
chain: TSPCKILKCNSEFWSATSGSHAPASDDTPEFCAALRSYALCTRRTARTCRGDLAYHSAVHGIEDLMSQHNCSKDGPTSQPRLRTLPPAGDSQERS
B7: secreted ectodomain of human BMPR1A (eBMPR1A) (receptor)
chain: TLAPEDTLPFLKCYCSGHCPDDAINNTCITNGHCFAIIEEDDQGETTLASGCMKYEGSDFQCKDSPKAQLRRTIECCRTNLCNQYLQPTLPPV
B8: N-terminal domain of human RGMB (RGMBND) (domain or fragment)
chain: QCRIQKCTTDFVSLTSHLNSAVDGFDSEFCKALRAYAGCTQRTSKACRGNLVYHSAVLGISDLMSQRNCSKDGPTSSTNPEVTH
B9: human BMP2 (Bone Morphogenetic Protein 2), disulfide-linked dimer (ligand)
chain: QAKHKQRKRLKSSCKRHPLYVDFSDVGWNDWIVAPPGYHAFYCHGECPFPLADHLNSTNHAIVQTLVNSVNSKIPKACCVPTELSAISMLYLDENEKVVLKNYQDMVVEGCGCR
B10: full length ectodomain of human RGMB (eRGMB) (domain or fragment)
chain: QCRIQKCTTDFVSLTSHLNSAVDGFDSEFCKALRAYAGCTQRTSKACRGNLVYHSAVLGISDLMSQRNCSKDGPTSSTNPEVTHDPCNYHSHAGAREHRRGDQNPPSYLFCGLFGDPHLRTFKDNFQTCKVEGAWPLIDNNYLSVQVTNVPVVPGSSATATNKITIIFKAHHECTDQKVYQAVTDDLPAAFVDGTTSGGDSDAKSLRIVERESGHYVEMHARYIGTTVFVRQVGRYLTLAIRMPEDLAMSYEESQDLQLCVNGCPLSERIDDGQGQVSAILGHSLPRTSLVQAWPGYTLETANTQCHEKMPVKDIYFQSCVFDLLTTGDANFTAAAHSALEDVEALHPRKERWHIFPSSG

Data set [1] deals with human BMP2 (Bone Morphogenetic Protein 2), disulfide-linked dimer (human) (UniProt P12643). As to the kind of experiment: SPR. In general terms: In SPR one partner is held on a chip, and binding of the other changes the refractive index at the surface.
In data set [2] the target is B10. The data set is described as follows: SAXS.
Data set [3] addresses B9. As to the kind of experiment: crystal structure.
Data set [4] addresses B9. As to the kind of experiment: SPR.
Data set [5] addresses B10. The data set is described as follows: crystal structure.
Data set [6] deals with B9. As to the kind of experiment: SPR. This is another data set of the same source.
The target in data set [7] is B9. The data set is described as follows: SEC-MALS. Background: SEC sorts molecules by how far they enter the pores of the column.
Data set [8] concerns the molecule itself. The data set is described as follows: crystal structure.
Data set [9] concerns the target T1, full length ectodomain of human RGMC (eRGMC) (human, UniProt Q6ZVN8 36-400).
T1 sequence: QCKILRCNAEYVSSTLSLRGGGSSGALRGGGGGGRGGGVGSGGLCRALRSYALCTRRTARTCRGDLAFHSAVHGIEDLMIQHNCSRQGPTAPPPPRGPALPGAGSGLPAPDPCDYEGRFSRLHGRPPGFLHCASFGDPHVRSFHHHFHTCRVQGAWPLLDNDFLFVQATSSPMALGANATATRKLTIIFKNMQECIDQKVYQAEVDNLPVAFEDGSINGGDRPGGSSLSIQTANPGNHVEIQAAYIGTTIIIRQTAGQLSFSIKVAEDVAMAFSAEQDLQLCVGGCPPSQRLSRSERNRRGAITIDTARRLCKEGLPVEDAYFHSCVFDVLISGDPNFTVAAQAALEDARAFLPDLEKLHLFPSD
The data set is described as follows: SPR.

The target in data set [10] is B10. As to the kind of experiment: SPR.
The target in data set [11] is B9. As to the kind of experiment: SAXS.
Data set [12] deals with B9. As to the kind of experiment: crystal structure. The source holds these as a separate data set.

In data set [1], “RGMC H104A mutant (from UniProt Q6ZVN8 36-147) (domain or fragment)” came in with a Kd of 280 nM. This counts as sub-micromolar. For B1, the “stoichiometry N” value in data set [2] was 1 NEO1 per eRGMB (printed 2:2:2). For B2, the “stoichiometry N” value in [3] amounted to 2 RGMC per BMP2 dimer. In data set [4], this molecule came in with a Kd of 124 nM. In the case of B3, the affinity in data set [4], expressed as Kd, was 1500 nM. In other words, the single-digit micromolar range. Same read-out and setting: the result for B4 reads 910 nM. For B5, in data set [5], the binding result is “binds”.

Turning to B6, the binding result in [3] is on record as “binds”.

Turning to B7, in [6], binding was put at a Kd of 280 nM. The “stoichiometry N” value in data set [7] is 2 eBMPR1A per disulfide-linked BMP2 dimer (printed 2:2). Turning to B8, the “stoichiometry N” value in [7] was 2 RGMBND per disulfide-linked BMP2 dimer (printed 2:2). The Kd in data set [4] came out at 88 nM. Consider B9, for which the “stoichiometry N” value in [8] turned out to be 2. The binding result in data set [9] and in data set [10] was “binds” throughout. With B10, the “stoichiometry N” value is 2 eRGMB per BMP2 dimer (printed 2:2:2) in data set [11] and 2 RGMB per BMP2 dimer in data set [12].

As usually defined, the Kd is the equilibrium constant for the complex coming apart. Higher therefore signals weaker binding. In general, stoichiometry N refers to the number of molecules, sites or subunits per partner or assembly.
